From patent US20130236473A1, “THERAPEUTIC AGENTS AND PROPHYLACTIC AGENTS FOR SYMPTOMS ACCOMPANYING AUTOIMMUNE DISEASES, INFLAMMATORY DISEASES, ALLERGY DISEASES AND ORGAN TRANSPLANTS” (OSAKA UNIVERSITY, priority 2010, published 2013)

B1: HB-EGF protein: human HB-EGF protein (R&D Systems, Inc.), ligand of ErbB1 protein (protein)
chain: DLQEADLDLLRVTLSSKPQALATPNKEEHGKRKKKGKGLGKKRDPCLRKYKDFCIHGECKYVKELRAPSCICHPGYHGERCHGLSL
B2: FGF7 protein: mouse FGF7 protein (R&D Systems, Inc.), not a ligand of ErbB1 protein (protein, UniProt P36363 32-194, looked up)
Fibroblast growth factor 7: CNDMSPEQTATSVNCSSPERHTRSYDYMEGGDIRVRRLFCRTQWYLRIDKRGKVKGTQEMKNSYNIMEIRTVAVGIVAIKGVESEYYLAMNKEGKLYAKKECNEDCNFKELILENHYNTYASAKWTHSGGEMFVALNQKGIPVKGKKTKKEQKTAHFLPMAIT

Tested on: IL-6 amplifier
Assay: Reference Example 3: effect of growth factors on mIL-6 protein production in BC-1 cells (ELISA)
Assay type: cell-based, mouse
Settings: 24 hours, hIL-6/6R and mIL-17A each 50 ng/ml, growth factor added, versus none added
Description: 2×10^5 mouse BC-1 cells were cultured for 24 hours in an RPMI 1640 medium containing hIL-6/6R proteins each at 50 ng/ml and mIL-17A protein at 50 ng/ml under the condition in which 100 ng/ml of mouse EGF protein (R&D Systems, Inc.), 100 ng/ml of human HB-EGF protein (R&D Systems, Inc.), 0.1, 1, 10, or 100 ng/ml of mouse epiregulin protein (R&D Systems, Inc.), 50 ng/ml of mouse VEGF protein (R&D Systems, Inc.), 50 ng/ml of mouse FGF7 protein (R&D Systems, Inc.), or 300 ng/ml of mPDGF-CC protein (R&D Systems, Inc.) was separately added. Mouse BC-1 cells cultured under the condition in which only hIL-6/6R proteins and mIL-17A protein were added served as a control group.
After the culture, the production amount of mIL-6 protein under each condition was quantified by an ELISA method in the same manner as in Reference Example 1. FIGS. 5 and 6 show the results.

Molecule	production amount of mIL-6 protein
B1	significantly (p value <0.01) increased
B2	no significant difference
